Assay results from US20240199745A1, “ANTI-EGFR ANTIBODY DRUG CONJUGATES” (priority 2016, published 2024).
Substitutions are numbered along the chain they refer to.

B1: AbB-TV (antibody, human IgG1, kappa, V domains shown)
VH: EVQLQESGPGLVKPSQTLSLTCTVSGYSISNDFAWNWIRQPPGKGLEWMGYISYKGNTRYQPSLKSRITISRDTSKNQFFLKLNSVTAADTATYYCVTASRGFPWWGQGTLVTVSS
VL: DIQMTQSPSSMSVSVGDRVTITCHSSQDINSNIGWLQQKPGKSFKGLIYHGTNLDDGVPSRFSGSGSGTDYTLTISSLQPEDFATYYCVQYAQFPWTFGGGTKLEIKR
modifications: synthon TV on reduced interchain cysteines; average DAR 2.3 per ADC
B2: AbK-YY (antibody, human IgG1, kappa, V domains shown)
VH: B1 VH with N31R, K55N
VL: B1 VL with N30T, S31Y, I33V, T52S, D56H, A92D, Q93D
modifications: synthon YY on reduced interchain cysteines; average DAR 1.7 per ADC
B3: AbB-AAD (antibody, human IgG1, kappa, V domains shown)
VH: B1 VH
VL: B1 VL
modifications: synthon AAD on reduced interchain cysteines; average DAR 2.7 per ADC
B4: AbB-WD (antibody, human IgG1, kappa, V domains shown)
VH: B1 VH
VL: B1 VL
modifications: synthon WD on reduced interchain cysteines; average DAR 1.6 per ADC
B5: AbA-LB (antibody, human IgG1, kappa, V domains shown)
VH: B1 VH with N31R, K55N, W105Y
VL: B1 VL
modifications: synthon LB on reduced interchain cysteines; average DAR 2.4 per ADC
B6: AbB-YY (antibody, human IgG1, kappa, V domains shown)
VH: B1 VH
VL: B1 VL
modifications: synthon YY on reduced interchain cysteines; average DAR 2.2 per ADC
B7: AbK-TV (antibody, human IgG1, kappa, V domains shown)
VH: B1 VH with N31R, K55N
VL: B1 VL with N30T, S31Y, I33V, T52S, D56H, A92D, Q93D
modifications: synthon TV on reduced interchain cysteines; average DAR 2.4 per ADC
B8: AbK-TX (antibody, human IgG1, kappa, V domains shown)
VH: B1 VH with N31R, K55N
VL: B1 VL with N30T, S31Y, I33V, T52S, D56H, A92D, Q93D
modifications: synthon TX on reduced interchain cysteines; average DAR 2.2 per ADC
B9: AbK-LB (antibody, human IgG1, kappa, V domains shown)
VH: B1 VH with N31R, K55N
VL: B1 VL with N30T, S31Y, I33V, T52S, D56H, A92D, Q93D
modifications: synthon LB on reduced interchain cysteines; average DAR 1.8 per ADC
B10: AbG-YY (antibody, human IgG1, kappa, V domains shown)
VH: B1 VH with P41L, F103L, W105Y
VL: B1 VL with N30T, S31Y, T52A, A92D, Q93E
modifications: synthon YY on reduced interchain cysteines; average DAR 2.2 per ADC
B11: AbK-AAA (antibody, human IgG1, kappa, V domains shown)
VH: B1 VH with N31R, K55N
VL: B1 VL with N30T, S31Y, I33V, T52S, D56H, A92D, Q93D
modifications: synthon AAA on reduced interchain cysteines; average DAR 1.6 per ADC
B12: AbK-WD (antibody, human IgG1, kappa, V domains shown)
VH: B1 VH with N31R, K55N
VL: B1 VL with N30T, S31Y, I33V, T52S, D56H, A92D, Q93D
modifications: synthon WD on reduced interchain cysteines; average DAR 1.7 per ADC
B13: AbG-AAD (antibody, human IgG1, kappa, V domains shown)
VH: B1 VH with P41L, F103L, W105Y
VL: B1 VL with N30T, S31Y, T52A, A92D, Q93E
modifications: synthon AAD on reduced interchain cysteines; average DAR 3.4 per ADC
B14: AbA-TX (antibody, human IgG1, kappa, V domains shown)
VH: B1 VH with N31R, K55N, W105Y
VL: B1 VL
modifications: synthon TX on reduced interchain cysteines; average DAR 2.8 per ADC
B15: AbG-AAA (antibody, human IgG1, kappa, V domains shown)
VH: B1 VH with P41L, F103L, W105Y
VL: B1 VL with N30T, S31Y, T52A, A92D, Q93E
modifications: synthon AAA on reduced interchain cysteines; average DAR 1.9 per ADC
B16: AbG-TX (antibody, human IgG1, kappa, V domains shown)
VH: B1 VH with P41L, F103L, W105Y
VL: B1 VL with N30T, S31Y, T52A, A92D, Q93E
modifications: synthon TX on reduced interchain cysteines; average DAR 3.3 per ADC
B17: AbG-CZ (antibody, human IgG1, kappa, V domains shown)
VH: B1 VH with P41L, F103L, W105Y
VL: B1 VL with N30T, S31Y, T52A, A92D, Q93E
modifications: synthon CZ on reduced interchain cysteines; average DAR 3.4 per ADC
B18: AbG-LB (antibody, human IgG1, kappa, V domains shown)
VH: B1 VH with P41L, F103L, W105Y
VL: B1 VL with N30T, S31Y, T52A, A92D, Q93E
modifications: synthon LB on reduced interchain cysteines; average DAR 2.5 per ADC
B19: AbG-TV (antibody, human IgG1, kappa, V domains shown)
VH: B1 VH with P41L, F103L, W105Y
VL: B1 VL with N30T, S31Y, T52A, A92D, Q93E
modifications: synthon TV on reduced interchain cysteines; average DAR 3.7 per ADC
B20: AbA-ZZ (antibody, human IgG1, kappa, V domains shown)
VH: B1 VH with N31R, K55N, W105Y
VL: B1 VL
modifications: synthon ZZ on reduced interchain cysteines; average DAR 1.3 per ADC
B21: AbK-CZ (antibody, human IgG1, kappa, V domains shown)
VH: B1 VH with N31R, K55N
VL: B1 VL with N30T, S31Y, I33V, T52S, D56H, A92D, Q93D
modifications: synthon CZ on reduced interchain cysteines; average DAR 3.4 per ADC
B22: AbA-TV (antibody, human IgG1, kappa, V domains shown)
VH: B1 VH with N31R, K55N, W105Y
VL: B1 VL
modifications: synthon TV on reduced interchain cysteines; average DAR 3.7 per ADC
B23: AbA-ZT (antibody, human IgG1, kappa, V domains shown)
VH: B1 VH with N31R, K55N, W105Y
VL: B1 VL
modifications: synthon ZT on reduced interchain cysteines; average DAR 2 per ADC
B24: AbA-WD (antibody, human IgG1, kappa, V domains shown)
VH: B1 VH with N31R, K55N, W105Y
VL: B1 VL
modifications: synthon WD on reduced interchain cysteines; average DAR 1.8 per ADC
B25: AbB-LB (antibody, human IgG1, kappa, V domains shown)
VH: B1 VH
VL: B1 VL
modifications: synthon LB on reduced interchain cysteines; average DAR 1.8 per ADC
B26: AbG-WD (antibody, human IgG1, kappa, V domains shown)
VH: B1 VH with P41L, F103L, W105Y
VL: B1 VL with N30T, S31Y, T52A, A92D, Q93E
modifications: synthon WD on reduced interchain cysteines; average DAR 3.4 per ADC
B27: AbK-AAD (antibody, human IgG1, kappa, V domains shown)
VH: B1 VH with N31R, K55N
VL: B1 VL with N30T, S31Y, I33V, T52S, D56H, A92D, Q93D
modifications: synthon AAD on reduced interchain cysteines; average DAR 2.8 per ADC

Target: human EGFR (huEGFR) over-expressed on mcl-1-/- mouse embryonic fibroblasts (human, UniProt P00533 25-1210)
Assay: cell-based or functional assay

Binder | huEGFR+ mcl-1-/- MEF EC50 [nM]
B1 | 2.4
B2 | 47
B3 | 4.6
B4 | 23
B5 | 27
B6 | 51
B7 | 0.15
B8 | 0.79
B9 | 17
B10 | > 500
B11 | 3.4
B12 | 35
B13 | 108
B14 | 16
B15 | 220
B16 | 5.3
B17 | 3.4
B18 | 24
B19 | 2.6
B20 | 186
B21 | 0.1
B22 | 3
B23 | 104
B24 | 304
B25 | 31
B26 | 5.8
B27 | 0.4

Target: EGFR on EGFR positive non-small cell lung cancer cells NCI-H1650 (UniProt P00533 25-1210)
Assay: cell-based or functional assay

Binder | H1650 CTG-3D EC50 [µg/mL] | H1650 GFP Flourescence EC50 [µg/mL]
B1 | 0.86 | 0.74
B2 | 0.49 | 1.09
B3 | 0.16 | 0.59
B4 | 2.69 | 1.01
B5 | 4.05 | 2.48
B6 | 8.6 | 7.73
B7 | 0.05 | 0.16
B8 | 1.07 | 1.47
B9 | 1.23 | 1.33
B10 | 0.4 | 1.1
B11 | 0.11 | 0.16
B12 | 4.36 | 2.57
B13 | 0.02 | 0.03
B14 | > 40 | 13.9
B15 | 0.12 | 0.17
B16 | 0.15 | 0.51
B17 | 0.07 | 0.25
B18 | 1.68 | 1.62
B19 | 0.03 | 0.04
B20 | 1.86 | 1.18
B21 | 0.08 | 0.21
B22 | 0.34 | 0.69
B23 | 0.35 | 1.13
B24 | 23.6 | 7.62
B25 | 1.07 | 2.38
B26 | 2.03 | 0.36
B27 | 0.01 | 0.06
